The target in assay [1] is T1, human PD-1 (#PD1-H82E4, AcroBiosystems) (human, UniProt Q15116 25-167).
T1 construct: bought
The assay can be described thus: SPR, PD-1 on captured IgG1.

For assay [2], the target named is T2, cynomolgus PD-1 (#PD1-C52H5, AcroBiosystems) (cynomolgus monkey, UniProt B0LAJ3 25-170).
T2 construct: bought; also called cynomolgus monkey PD-1; not shown: the vendor's tag on the recombinant protein (AcroBiosystems #PD1-C52H5)
The assay can be described thus: SPR, PD-1 on captured IgG1. (Surface plasmon resonance follows binding to a sensor surface in real time, without labels.)

T1 sequence (Q15116 25-167 limits assumed): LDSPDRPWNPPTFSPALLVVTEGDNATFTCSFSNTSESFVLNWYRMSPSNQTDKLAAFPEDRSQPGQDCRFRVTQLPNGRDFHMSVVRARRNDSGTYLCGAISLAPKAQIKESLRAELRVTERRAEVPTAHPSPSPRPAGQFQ
T2 sequence (B0LAJ3 entry or part of it limits assumed, form in doubt): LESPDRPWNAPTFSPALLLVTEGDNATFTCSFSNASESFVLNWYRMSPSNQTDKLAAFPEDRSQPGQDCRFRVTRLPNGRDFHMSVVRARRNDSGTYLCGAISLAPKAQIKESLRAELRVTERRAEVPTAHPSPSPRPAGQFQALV

B1: KWH245 (antibody, human IgG1, V domains shown)
VH: EVQLLESGGGLVQPGGSLRLSCAASGFTFSINAMTWVRQAPGKGLEWVSTISGSGFSTYYADSLKGRFTISRDNSKNTLYLQMNSLRAEDTAVYYCAKEVYGDYWGQGTLVTVSS
VL: RSVLTQPPSASGTPGQRVSISCSGASSNIGSQSVFTYQQLPGTAPKLLIYSNNQRPSGVPDRFSGSKSGTSASLAISGLRSEDEADYYCAAWDDSLSIWVFGGGTKLTVL
notes: human IgG1
For B1, in assay [1], the affinity, expressed as Kd, was 0.183 nM; the koff (in general, the rate constant with which the complex falls apart) was found to be 0.000305 s⁻¹; the on-rate constant (kon) (as a rule, the rate constant with which the complex forms) turned out to be 1.67e+06 M⁻¹ s⁻¹. In assay [2], the dissociation constant (Kd) (as a rule, the equilibrium constant for the complex coming apart) is 2.29 nM; the koff was determined as 0.000644 s⁻¹; the kon was 281000 M⁻¹ s⁻¹.

B2: NWL270 (antibody, human IgG1, V domains shown)
VH: EVQLLESGGGLVQPGGSLRLSCAASGFTFSINAMTWVRQAPGKGLEWVSTISGSGFSTYYADSLKGRFTISRDNSKNTLYLQMNSLRAEDTAVYYCAKEVYGDYWGQGTLVTVSS
VL: RSVLTQPPSASGTPGQRVSISCSGASSNIGSQSVFWYQQLPGTAPKLLIYSNNQRPSGVPDRFSGSKSGTSASLAISGLRSEDEADYYCAAWDDSLSNWVFGGGTKLTVL
notes: human IgG1
In assay [1], B2 had a Kd of 0.229 nM, a koff of 9.82e-05 s⁻¹ and a kon of 429000 M⁻¹ s⁻¹. Moreover, in assay [2], the Kd was 0.949 nM, the koff is 0.00015 s⁻¹ and the kon was 158000 M⁻¹ s⁻¹.

B3: SSR010 (antibody, human IgG1, V domains shown)
VH: EVQLLESGGGLVQPGGSLRLSCAASGFTFSINAMTWVRQAPGKGLEWVSTISGSGFSTYYADSLKGRFTISRDNSKNTLYLQMNSLRAEDTAVYYCAKEVYGDYWGQGTLVTVSS
VL: RSVLTQPPSASGTPGQRVSISCSGASSNVGSQSVFWYQQLPGTAPKLLIYSNNQRPSGVPDRFSGSKSGTSASLAISGLRSEDEADYYCAAWDDSLSIWVFGGGTKLTVL
notes: human IgG1
In assay [1], B3 showed a Kd of 0.0767 nM, an off-rate constant (koff) of 0.000199 s⁻¹ and a kon of 2.6e+06 M⁻¹ s⁻¹. Moreover, in assay [2], binding was characterised by a dissociation constant (Kd) of 1.14 nM, the dissociation rate constant (koff) is 0.000301 s⁻¹ and the kon turned out to be 263000 M⁻¹ s⁻¹.

B4: KYC847 (antibody, human IgG1, V domains shown)
VH: EVQLLESGGGLVQPGGSLRLSCAASGFTFSINAMTWVRQAPGKGLEWVSTISGSGFSTYYADSLKGRFTISRDNSKNTLYLQMNSLRAEDTAVYYCAKEVYGDYWGQGTLVTVSS
VL: RSVLTQPPSASGTPGQRVSISCSGASSNIGSQSVFWYQQLPGTAPKLLIYSNNQRPSGVPDRFSGSKSGTSASLAISGLRSEDEADYYCAAWDDSLTIWVFGGGTKLTVL
notes: human IgG1
In the case of B4, in assay [1], the Kd stood at 0.528 nM, the koff is 7.59e-05 s⁻¹ and the kon came to 144000 M⁻¹ s⁻¹. In assay [2], this molecule returned a Kd of 0.597 nM, a dissociation rate constant (koff) of 0.000139 s⁻¹ and a kon of 233000 M⁻¹ s⁻¹.

The record behind these values is patent EP4671273A1 (Anaveon AG, dated 2025).
